In article PMC4597782 (Nature, 2015):

Target: the molecule itself
Test: single-molecule pull-down

B1: mGluR2-GFP (receptor)
chain: EGPAKKVLTLEGDLVLGGLFPVHQKGGPAEECGPVNEHRGIQRLEAMLFALDRINRDPHLLPGVRLGAHILDSCSKDTHALEQALDFVRASLSRGADGSRHICPDGSYATHSDAPTAVTGVIGGSYSDVSIQVANLLRLFQIPQISYASTSAKLSDKSRYDYFARTVPPDFFQAKAMAEILRFFNWTYVSTVASEGDYGETGIEAFELEARARNICVATSEKVGRAMSRAAFEGVVRALLQKPSARVAVLFTRSEDARELLAATQRLNASFTWVASDGWGALESVVAGSERAAEGAITIELASYPISDFASYFQSLDPWNNSRNPWFREFWEERFHCSFRQRDCAAHSLRAVPFEQESKIMFVVNAVYAMAHALHNMHRALCPNTTHLCDAMRPVNGRRLYKDFVLNVKFDAPFRPADTDDEVRFDRFGDGIGRYNIFTYLRAGSGRYRYQKVGYWAEGLTLDTSFIPWASPSAGPLPASRCSEPCLQNEVKSVQPGEVCCWLCIPCQPYEYRLDEFTCADCGLGYWPNASLTGCFELPQEYIRWGDAWAVGPVTIACLGALATLFVLGVFVRHNATPVVKASGRELCYILLGGVFLCYCMTFVFIAKPSTAVCTLRRLGLGTAFSVCYSALLTKTNRIARIFGGAREGAQRPRFISPASQVAICLALISGQLLIVAAWLVVEAPGTGKETAPERREVVTLRCNHRDASMLGSLAYNVLLIALCTLYAFKTRKCPENFNEAKFIGFTMYTTCIIWLAFLPIFYVTSSDYRVQTTTMCVSVSLSGSVVLGCLFAPKLHIILFQPQKNVVSHRAPTSRFGSAAPRASANLGQGSGSQFVPTVCNGREVVDSTTSSL
  stoichiometry N: 2
